The values that follow come from patent US20090191187A1 (published 2009).

Values joined by “and” are separate entries in the source; they are usually repeats but may differ in a detail not shown here. Identical values can stand only once.

Experiment [1] deals with T1, recombinant soluble human type 1 IL-1 receptor (extracellular domain, glycosylated) (human, UniProt P14778 21-333, N-glycosylated (from SF9 insect cells); biotinylated in the ELISA of Examples 2 and 4c).
T1 construct: also called hIL-1R; rshIL-1R
T1 sequence: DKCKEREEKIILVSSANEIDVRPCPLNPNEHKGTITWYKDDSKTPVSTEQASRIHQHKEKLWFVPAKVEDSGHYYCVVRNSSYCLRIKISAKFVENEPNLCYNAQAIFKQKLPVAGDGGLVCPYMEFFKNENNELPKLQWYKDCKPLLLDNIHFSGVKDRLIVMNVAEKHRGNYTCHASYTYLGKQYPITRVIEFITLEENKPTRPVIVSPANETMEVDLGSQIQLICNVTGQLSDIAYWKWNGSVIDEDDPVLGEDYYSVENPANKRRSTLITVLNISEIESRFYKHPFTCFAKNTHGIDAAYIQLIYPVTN
Kind of experiment: ELISA on biotinylated human IL-1R on streptavidin plates. How it is done:
The relative immunactivity of the antibodies as compared to 2D8 antibody was determined by ELISA. A soluble biotinylated human IL-1R was coated at room temperature for one hour to 96-well-plates (precoated with streptavidin). After blocking with BSA the antibody was diluted and added to the wells and incubated at room temperature for two hours. The plates were washed three times and incubated with horse-radish-peroxidase (POD)-conjugated rabbit-anti-rat-IgG at room temperature for one hour. After further washing the amount of bound antibody was determined by addition of TM-Blue® ([…]) and measurement of the absorbance at 370 nm.
(An ELISA detects its analyte on a solid surface through an enzyme-linked reagent.)

Experiment [2] has as its target T2, human interleukin-1 receptor on cells (MRC-5 human embryonic lung fibroblasts; human blood cells) (human, UniProt P14778 18-569).
T2 sequence (looked up): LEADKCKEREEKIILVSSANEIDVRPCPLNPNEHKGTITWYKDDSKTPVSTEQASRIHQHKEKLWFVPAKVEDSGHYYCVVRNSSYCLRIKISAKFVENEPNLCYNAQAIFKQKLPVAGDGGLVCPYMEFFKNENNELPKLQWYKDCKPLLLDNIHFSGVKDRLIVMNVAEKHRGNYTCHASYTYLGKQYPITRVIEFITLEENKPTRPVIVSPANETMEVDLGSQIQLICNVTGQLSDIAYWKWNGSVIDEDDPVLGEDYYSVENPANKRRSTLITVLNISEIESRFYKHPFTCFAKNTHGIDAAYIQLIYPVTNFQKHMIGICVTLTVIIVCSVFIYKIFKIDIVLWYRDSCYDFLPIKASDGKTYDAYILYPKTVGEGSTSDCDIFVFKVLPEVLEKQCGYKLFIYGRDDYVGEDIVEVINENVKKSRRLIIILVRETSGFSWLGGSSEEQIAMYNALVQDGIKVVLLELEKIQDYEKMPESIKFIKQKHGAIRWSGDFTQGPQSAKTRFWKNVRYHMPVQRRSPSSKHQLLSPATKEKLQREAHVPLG
Kind of experiment: cell-based or functional assay.

For experiment [3], the target named is T1, recombinant soluble human type 1 IL-1 …. Kind of experiment: SPR competition: IL-1R (10 nM) preincubated with DEI5/8, injected over immobilized 2D8 (competitor); first assay: immobilized 2D8. The protocol:
The protein-protein interaction of anti-IL-1R antibodies with IL-1R is analyzed by surface plasmon resonance using a Biacore 3000 System. Association rates are determined by an injection of two minutes duration; dissociation rates are measured by a washing step of three minutes duration. Negative control data are subtracted from original curves for correction of system intrinsic baseline drift and for noise signal reduction. Two assay formats with the antibody and IL-1R immobilized to the chip surface are used for this study.
a) Anti-IL-1R antibody 2D8 is covalently immobilized on the chip surface (CM5) by amine coupling. IL-1R is injected in a concentration of 10 nM under mass transfer conditions in order to determine the maximum signal which serves as a reference in the inhibition studies. Inhibition of IL-1R (10 nM) binding is measured by preincubation (in HBS—P buffer for at least 20 min at room temperature) of IL-1R with increasing concentrations (0.78-100 nM) of IL-1R antagonist, IL-1beta or DEI5/8. Subsequently, the samples are injected into the flow cells and interaction with immobilized 2D8 antibody is determined.

The target in experiment [4] is T2, human interleukin-1 receptor on cells …. Kind of experiment: cell-based or functional assay. This is another data set of the same source.

B1: DEI5/5 (antibody, V domains shown)
VH: QLQLQESGPGLVKPSQTLSLTCTVSGLSLTSNSITWIRQPPGKGPEWMGMIWSNGDTDYSTSLKSRLTISKDTSKSQVVLTMTNMDPVDTATYYCARYNYYFDYWGQGTLVTVSS
VL: DIVLTQSPATLSLSPGERATISCKASQNVDNRGVSYVHWYQQKPGQAPKLLIYKGSNLAFGVPARFSGSGSGTDFTLTISSLQPEDFATYYCQQSKGHPDTFGAGTKLELK
notes: also called combination of HURDIVHv5 and HURDIVKv5
Turning to B1, in experiment [1], the “ELISA (absorbance at 370 nm in relation to 2D8), 1st experiment” value (shortened to “ELISA … 1st experiment”) was 3.1 relative to 2D8; the “ELISA (absorbance at 370 nm in relation to 2D8), 2nd experiment” value (“ELISA … 2nd experiment” below) is 3.4 relative to 2D8; the “ELISA (absorbance at 370 nm in relation to 2D8), mean” value (from here on “ELISA … mean”) is 3.3 relative to 2D8. Also, in experiment [2], the “Bioassay (IC50 in relation to 2D8), 1st experiment” value (“Bioassay … 1st experiment” for short) was 5.2 relative to 2D8; the “Bioassay (IC50 in relation to 2D8), 2nd experiment” value (from here on “Bioassay … 2nd experiment”) was 3.9 relative to 2D8; the “Bioassay (IC50 in relation to 2D8), Mean” value is 4.6 relative to 2D8.

B2: HUM2/2 (antibody, V domains shown)
VH: QVQLQESGPGLVKPSETLSLTCTVSELSLTSNSITWIRQPPGKGLEWIGMIWSNGDTDYNSAFTSRVTISRDTSKNQFSLKLSSVTAADTAVYYCARYNYYFDYWGQGTLVTVSS
VL: EIVLTQSPATLSLSPGERATLSCKASQNVDNRGVSYVHWYQQKPGQAPRLLIYKGSNLAFGVPARFSGSGSRTDFTLTISSLEPEDFATYYCQQSKGHPDTFGQGTKVEIK
notes: Humanized variant of 2D8
In the case of B2, in experiment [1], the “ELISA … 1st experiment” value was 1.3 relative to 2D8; the “ELISA … 2nd experiment” value is 1.6 relative to 2D8; the “ELISA … mean” value was 1.4 relative to 2D8. Moreover, in experiment [2], the “Bioassay … 1st experiment” value is 0.9 relative to 2D8; the “Bioassay … 2nd experiment” value was 1 relative to 2D8; the “Bioassay (IC50 in relation to 2D8), Mean” value is 1 relative to 2D8.

B3: DEI5/8 (antibody, human IgG4, kappa, V domains shown)
VH: QLQLQESGPGLVKPSQTLSLTCTVSGLSLTSNSITWIRQPPGKGPEWMGMIWSNGDTDYSTSLKSRLTISKDTSKSQVVLTMTNMDPVDTATYYCARYNYYFDYWGQGTLVTVSS
VL: DIVLTQSPATLSLSPGERATLSCKASQNVDNRGVSYVHWYQQKPGQAPKLLIYKGSNLAFGVPSRFSGSGSGTDFTLTISSLQPEDFATYFCQQSKGHPDTFGAGTKLELKR
notes: also called combination of HURDIVHv5 and HURDIVKv8
On to B3, for which, in experiment [1], the “ELISA … 1st experiment” value is 1.4 relative to 2D8; the “ELISA … 2nd experiment” value is 1.9 relative to 2D8; the “ELISA … mean” value is 1.7 relative to 2D8. Besides, in experiment [2], the “Bioassay … 1st experiment” value is 1.7 relative to 2D8; the “Bioassay … 2nd experiment” value is 2.2 relative to 2D8; the “Bioassay (IC50 in relation to 2D8), Mean” value was 2 relative to 2D8. For the same molecule, the IC50 in experiment [3] worked out at 2 nM.

B4: DEI1/8 (antibody, V domains shown)
VH: QLQLQESGPGLVKPSQTLSLTCTVSGLSLTSNSITWVRQAPGQGLEWMGMIWSNGDTDYNSAFTSRFTISRDNSKNTLYLQMNSLKTEDTAVYYCARYNYYFDYWGQGTLVTVSS
VL: DIVLTQSPATLSLSPGERATLSCKASQNVDNRGVSYVHWYQQKPGQAPKLLIYKGSNLAFGVPSRFSGSGSGTDFTLTISSLQPEDFATYFCQQSKGHPDTFGAGTKLELK
As for B4, in experiment [1], the “ELISA … 1st experiment” value was 2.1 relative to 2D8; the “ELISA … 2nd experiment” value was 2.2 relative to 2D8; the “ELISA … mean” value was 2.2 relative to 2D8. Also, in experiment [2], the “Bioassay … 1st experiment” value was 3.2 relative to 2D8; the “Bioassay … 2nd experiment” value was 0.7 relative to 2D8; the “Bioassay (IC50 in relation to 2D8), Mean” value was 2 relative to 2D8.

B5: HUM2/3 (antibody, V domains shown)
VH: QVQLQESGPGLVKPSETLSLTCTVSELSLTSNSITWIRQPPGKGLEWIGMIWSNGDTDYNSAFTSRVTISRDTSKNQFSLKLSSVTAADTAVYYCARYNYYFDYWGQGTLVTVSS
VL: EIVLTQSPATLSLSPGERATISCKASQNVDNRGVSYVHWYQQKPGQQPKLLIYKGSNLAFGVPARFSGSGSRTDFTLTISSLEPEDFATYYCQQSKGHPDTFGQGTKVEIK
notes: also called combination of HUR HuVH v2 and HUR HuVK v3
With B5, in experiment [1], the “ELISA … 1st experiment” value was 2.2 relative to 2D8; the “ELISA … 2nd experiment” value was 2.1 relative to 2D8; the “ELISA … mean” value is 2.2 relative to 2D8. In addition, in experiment [2], the “Bioassay … 1st experiment” value was 0.8 relative to 2D8; the “Bioassay … 2nd experiment” value is 1.5 relative to 2D8; the “Bioassay (IC50 in relation to 2D8), Mean” value is 1.2 relative to 2D8.

B6: DEI4/5 (antibody, V domains shown)
VH: QLQLQESGPGLVKPSQTLSLTCTVSGLSLTSNSITWIRQPPGKGPEWMGMIWSNGDTDYNSAFTSRFTISRDNSKNTLYLQMNSLKTEDTAVYYCARYNYYFDYWGQGTLVTVSS
VL: DIVLTQSPATLSLSPGERATISCKASQNVDNRGVSYVHWYQQKPGQAPKLLIYKGSNLAFGVPARFSGSGSGTDFTLTISSLQPEDFATYYCQQSKGHPDTFGAGTKLELK
notes: also called combination of HURDIVHv4 and HURDIVKv5
Turning to B6, in experiment [1], the “ELISA … 1st experiment” value was 3 relative to 2D8; the “ELISA … 2nd experiment” value was 2.2 relative to 2D8; the “ELISA … mean” value is 2.6 relative to 2D8. Besides, in experiment [2], the “Bioassay … 1st experiment” value was 1.5 relative to 2D8; the “Bioassay … 2nd experiment” value was 4.5 relative to 2D8; the “Bioassay (IC50 in relation to 2D8), Mean” value is 3 relative to 2D8.

B7: antibody 2D8 (rat monoclonal antibody against human interleukin-1 receptor, from hybridoma cell line MAK<h-IL-1RI>2D8, DSM ACC 2601) (antibody, V domains shown)
VH: QLQLKESGPGLVQPSQTLSLTCTVSELSLTSNSITWIRQPPGRGLEWMGMIWSNGDTDYNSAFTSRLSISRDTSKSQVFLKMNSLQTEDSAMYFCARYNYYFDYWGQGVMVTVSS
VL: DIVLTQAPVLAVSLEQRATISCKASQNVDNRGVSYVHWYQQKPRQQPKLLIYKGSNLAFGVPARFSGSGSRTDFTLTIDPVETDDFATYYCQQSKGHPDTFGAGTKLEL
Turning to B7, in experiment [4], the “IC 50 for the inhibition of IL-8 secretion (h-IL1β stimulated MRC-5 cells)” value (from here on “IC 50 for the inhibition”) is 7.2 pM and 1.08 ng/ml. For the same molecule, the “Bioassay (IC50 in relation to 2D8), Mean” value in experiment [2] was 1 relative to 2D8.

B8: chimeric 2D8 (IgG1) (antibody)
heavy: not shown
light: DIVLTQAPVLAVSLEQRATISCKASQNVDNRGVSYVHWYQQKPRQQPKLLIYKGSNLAFGVPARFSGSGSRTDFTLTIDPVETDDFATYYCQQSKGHPDTFGAGTKLELKRTVAAPSVFIFPPSDEQLKSGTASVVCLLNNFYPREAKVQWKVDNALQSGNSQESVTEQDSKDSTYSLSSTLTLSKADYEKHKVYACEVTHQGLSSPVTKSFNRGEC
For the molecule B8, the “IC 50 for the inhibition” value in experiment [4] was 4.7 pM and 0.71 ng/ml.

B9: chimeric 2D8 (IgG4) (antibody)
heavy: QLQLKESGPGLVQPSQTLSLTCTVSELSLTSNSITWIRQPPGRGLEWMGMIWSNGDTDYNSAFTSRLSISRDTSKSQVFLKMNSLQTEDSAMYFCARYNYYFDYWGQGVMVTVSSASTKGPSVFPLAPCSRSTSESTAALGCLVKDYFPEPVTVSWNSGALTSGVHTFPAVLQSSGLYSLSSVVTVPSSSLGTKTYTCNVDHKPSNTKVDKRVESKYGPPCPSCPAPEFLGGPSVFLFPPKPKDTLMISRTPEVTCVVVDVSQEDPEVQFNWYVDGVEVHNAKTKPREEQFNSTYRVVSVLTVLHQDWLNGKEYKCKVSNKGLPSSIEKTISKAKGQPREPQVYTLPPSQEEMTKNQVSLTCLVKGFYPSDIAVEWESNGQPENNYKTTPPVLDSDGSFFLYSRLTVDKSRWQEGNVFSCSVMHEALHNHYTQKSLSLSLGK
light: DIVLTQAPVLAVSLEQRATISCKASQNVDNRGVSYVHWYQQKPRQQPKLLIYKGSNLAFGVPARFSGSGSRTDFTLTIDPVETDDFATYYCQQSKGHPDTFGAGTKLELKRTVAAPSVFIFPPSDEQLKSGTASVVCLLNNFYPREAKVQWKVDNALQSGNSQESVTEQDSKDSTYSLSSTLTLSKADYEKHKVYACEVTHQGLSSPVTKSFNRGEC
With B9, the “IC 50 for the inhibition” value in experiment [4] is 5.1 pM and 0.77 ng/ml.

For orientation: IC50 means the concentration at which inhibition is half-maximal.
